Source: PMC12583094 (2025)

Molecular target: Myeloperoxidase (Homo sapiens, UniProt P05164)
Assay: SPR

Chain of Myeloperoxidase (P05164 165-273): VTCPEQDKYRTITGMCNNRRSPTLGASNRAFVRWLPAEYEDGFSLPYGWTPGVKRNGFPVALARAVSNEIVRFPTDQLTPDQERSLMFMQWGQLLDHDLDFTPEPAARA

Kd: 183 µM
Binder: VPNHFNAP [VPNHFNAP peptide]
